Measurements as given in US12415847B2, “ApoM-Fc fusion proteins for treating lung diseases” (Children's Medical Center Corporation, priority 2018, dated 2025).

B1: Mouse ApoMFc-S1P: Mouse ApoM-mouse IgG1Fc fusion (mApoM-Fc) loaded with S1P (protein)
chain: NQCPEHSQLTALGMDDTETPEPHLGLWYFIAGAAPTTEELATFDPVDNIVFNMAAGSAPRQLQLRATIRTKSGVCVPRKWTYRLTEGKGNMELRTEGRPDMKTDLFSSSCPGGIMLKETGQGYQRFLLYNRSPHPPEKCVEEFKSLTSCLDFKAFLVTPRNQEACPLSSKWISSASSAKTTPPSVYPLAPGSAAQTNSMVTLGCLVKGYFPEPVTVTWNSGSLSSGVHTFPAVLQSDLYTLSSSVTVPSSTWPSETVTCNVAHPASSTKVDKKIVPRDCGCKPCICTVPEVSSVFIFPPKPKDVLTITLTPKVTCVVVDISKDDPEVQFSWFVDDVEVHTAQTQPREEQFNSTFRSVSELPIMHQDWLNGKEFKCRVNSAAFPAPIEKTISKTKGRPKAPQVYTIPPPKEQMAKDKVSLTCMITDFFPEDITVEWQWNGQPAENYKNTQPIMDTDGSYFVYSKLNVQKSNWEAGNTFTCSVLHEGLHNHHTEKSLSHSPGK
B2: Free ApoM: free ApoM that is not associated with HDL; 26-kDa protein (protein, UniProt O95445 1-188, looked up)
Apolipoprotein M: MFHQIWAALLYFYGIILNSIYQCPEHSQLTTLGVDGKEFPEVHLGQWYFIAGAAPTKEELATFDPVDNIVFNMAAGSAPMQLHLRATIRMKDGLCVPRKWIYHLTEGSTDLRTEGRPDMKTELFSSSCPGGIMLNETGQGYQRFLLYNRSPHPPEKCVEEFKSLTSCLDSKAFLLTPRNQEACELSNN

Tests used:
[1] = target: T1, S1P1 receptor (Homo sapiens, UniProt P21453); assay: Nanobit split luciferase assay, Gi-alpha coupling; assay type: cell-based; conditions: transfected 293A cells; 1000 nM-0.3 nM S1P
T1 construct: expressed in transfected cells; host or cells: Human 293A cells, transient PEI transfection
Method: (§1) FIGS. 5A-5B. Nanobit analysis of Human ApoMFc-S1P, Mouse ApoMFc-S1P, or BSA-S1P (Positive Control). […] BSA-S1P is the well-established activator of the S1PR1 and it was tested whether Human ApoMFc-S1P, Mouse ApoMFc-S1P gave equivalent induction of receptor activation. Data are the means of triplicate wells with the baseline (pre-stimulation) signal subtracted from the final luciferase signal and graphs are expressed with standard deviation.
(§2) The S1P receptors are members of the G-protein coupled receptor (GPCR) superfamily. Receptor activation is characterized by immediate activation of a G-protein complex (alpha-beta-gamma) that activates multiple intracellular signaling pathways and then secondary activation of coupling to the protein beta-arrestin, which may cause receptor internalization and desensitization as well as activation of other intracellular signaling pathways. […]
(§3) There are two general forms of this assay. […] Upon activation of the GPCR, the G-Protein alpha-beta-gamma complex […] and Luciferase activity may be detected by measuring emitted light in the presence of luciferase substrate (luciferin). […] It is notable that G-Protein assay results in decreased relative fluorescence with increased receptor activation, while the Beta-arrestin coupling assay results in increased relative fluorescence with increased receptor activation. […]
Target sequence in this assay (P21453 whole entry): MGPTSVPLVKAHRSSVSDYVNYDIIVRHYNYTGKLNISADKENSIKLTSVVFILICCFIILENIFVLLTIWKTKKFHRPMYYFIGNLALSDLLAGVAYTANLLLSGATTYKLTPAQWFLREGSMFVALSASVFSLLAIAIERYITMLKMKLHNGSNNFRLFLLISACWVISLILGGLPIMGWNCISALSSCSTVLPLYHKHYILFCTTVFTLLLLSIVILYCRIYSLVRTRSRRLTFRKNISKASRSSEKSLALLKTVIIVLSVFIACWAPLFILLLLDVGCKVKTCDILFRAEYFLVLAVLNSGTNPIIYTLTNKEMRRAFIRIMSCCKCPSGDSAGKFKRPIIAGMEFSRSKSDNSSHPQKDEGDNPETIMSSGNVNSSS

[2] = target: T1, S1P1 receptor; assay: Nanobit split luciferase assay, beta-arrestin coupling; assay type: cell-based; conditions: transfected 293A cells; 1000 nM-0.3 nM S1P
Method: as §1, §2, §3
Target sequence in this assay (P21453 whole entry): as above
Target sequence in this assay (P49407 whole entry partner): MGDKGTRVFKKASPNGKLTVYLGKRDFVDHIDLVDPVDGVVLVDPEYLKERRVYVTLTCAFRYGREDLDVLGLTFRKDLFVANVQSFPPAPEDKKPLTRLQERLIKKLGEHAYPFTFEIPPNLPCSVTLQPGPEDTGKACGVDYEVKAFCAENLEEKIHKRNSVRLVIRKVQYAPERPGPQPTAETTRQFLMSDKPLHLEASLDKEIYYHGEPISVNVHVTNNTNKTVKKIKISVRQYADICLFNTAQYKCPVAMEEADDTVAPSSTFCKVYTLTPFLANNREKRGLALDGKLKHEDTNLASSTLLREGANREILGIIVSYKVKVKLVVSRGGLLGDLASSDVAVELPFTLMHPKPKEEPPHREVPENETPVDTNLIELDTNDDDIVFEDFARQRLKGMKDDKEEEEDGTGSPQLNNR

[3] = system: HUVECs; assay: Trans-endothelial electrical resistance (TEER); assay type: cell-based, human; conditions: 4 μg/well, 250 nM S1P, 6 hour time point
Method: FIG. 4. Human and Mouse ApoM-Fc-S1P enhanced endothelial Barrier Protection. Human ApoMFc-S1P (4 μg/well, 250 nM S1P), Mouse ApoMFc-S1P (4 μg/well, 250 nM S1P), or BSA-S1P (250 nM S1P; Positive Control) were analyzed using transepithelial/transendothelial electrical resistance (TEER). The results of TEER analysis of HUVECs at the 6 hour time point are shown. BSA-S1P is the well-established activator of the S1PR1 and it was tested whether Human ApoMFc-S1P, Mouse ApoMFc-S1P gave equivalent induction of receptor activation. All results are normalized to individual well baselines (baseline=1), expressed as the mean of triplicate wells, and Standard Deviation (S.D.) is expressed as gray vertical bars over the course of the data set. […]
0.1 ml of Human Umbilical Vascular Endothelial Cells (HUVECS; 200,000 cells/ml in EGM-2 culture medium, Lonza) were seeded into a 96 well electrical conductance chamber (ECIS Cultureware; Applied Biophysics, Inc) pre-coated with 1% Fibronectin resuspended in Saline. After overnight incubation at 37° C./5% CO2, the 96-well plate was placed on the ECIS reader (Applied Biophysics; Ztheta 96-well array station) and baseline resistance was established which represents the quality of Endothelial junction strength or Endothelial barrier function. […]

[4] = free ApoM not associated with HDL; Faber et al. 2006; cited from earlier work

Molecule | activation of Gi-alpha coupling to the S1P1 receptor [1] | activation of beta-arrestin coupling to the S1P1 receptor [2] | endothelial barrier protection (TEER) [3] | half-life [4]
B1 | equivalently activates | equivalently activates | enhance endothelial Barrier Protection | –
B2 | – | – | – | extremely short
